# Article PMC8529273
# Biological target: human ACE-2, Fc-tagged (human) (UniProt Q9BYF1)
# Assay: BLI
Substance,Kd,koff,kon
SARS-CoV-2 B.1.351 RBD (K417N_E484K_N501Y) (domain or fragment),7.81 nM,,
SARS-CoV-2 P.1 RBD (K417T_E484K_N501Y) (domain or fragment),5.64 nM,,
SARS-CoV-2 RBD E484K (domain or fragment),15.6 nM,0.00677 s⁻¹,433000 M⁻¹ s⁻¹
SARS-CoV-2 RBD K417N (domain or fragment),77 nM,0.0162 s⁻¹,
SARS-CoV-2 RBD K417T (domain or fragment),56.7 nM,0.0129 s⁻¹,
SARS-CoV-2 receptor-binding domain (RBD) wild type (Wuhan strain) (domain or fragment),23.9 nM,0.00755 s⁻¹,315000 M⁻¹ s⁻¹
